Where a chain is given by its changes, count along the chain named.

Experimental findings from US20220396631A1 (Novartis, published 2022) are described below.

Assay [1] concerns the target T1, Human CD2 (human, UniProt P06729 25-209).
T1 construct: also called recombinant human CD2; CD2 extracellular domain
T1 sequence: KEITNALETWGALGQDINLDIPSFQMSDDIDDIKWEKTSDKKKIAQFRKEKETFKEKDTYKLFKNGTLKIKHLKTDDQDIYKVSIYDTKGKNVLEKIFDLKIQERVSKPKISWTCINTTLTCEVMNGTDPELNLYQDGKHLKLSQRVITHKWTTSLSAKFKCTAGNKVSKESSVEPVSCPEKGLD
Kind of assay: isothermal titration calorimetry; 100 uM CD2 titrated into 10 uM CD58 variant in HBS. Here is the method: To ensure the binding affinity remained uncompromised by the additional of the stabilizing disulfide variance, isothermal calorimetry (ITC) was performed on the resulting recombinant CD58 proteins to determine their apparent KD and binding stoicheometry (n) to recombinant human CD2.
Briefly, recombinant human CD2 and recombinant human CD58 variants were dialyzed into HEPES-buffered saline (HBS). CD2 was diluted to final concentration of 100 μM, CD58 variants were diluted to 10 μM. CD2 was titrated into 10 μM of CD58 variants via multiple injections and ΔH (kcal/mole) determined using a MicroCal VP-ITC isothermal titration calorimeter (Malvern). Titrations of CD2 into HBS were used as a reference and KD and n determined from the resulting data.
A general note: In ITC the heat of successive injections is recorded.

The target in assay [2] is T2, human BCMA (human, UniProt Q02223 1-54, limits assumed).
T2 construct: also called B-cell maturation antigen; TNFRSF17
T2 sequence (looked up): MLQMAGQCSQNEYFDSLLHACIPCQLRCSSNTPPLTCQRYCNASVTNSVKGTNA
Put plainly: affinity maturation of PI-61.

The target in assay [3] is T2, human BCMA. Put plainly: phage display selection.

B1: CD58 Full ECD (ligand)
chain: SQQIYGVVYGNVTFHVPSNVPLKEVLWKKQKDKVAELENSEFRAFSSFKNRVYLDTVSGSLTIYNLTSSDEDEYEMESPNITDTMKFFLYVLESLPSPTLTCALTNGSIEVQCMIPEHYNSHRGLIMYSWDCPMEQCKRNSTSIYFKMENDLPQKIQCTLSNPLFNTTSSIILTTCIPSSGHSRHRGGGGSHHHHHHHH
notes: Recombinant, made in HEK293 cells
For the molecule B1, the “n (binding stoichiometry)” value in assay [1] came to 0.92.

B2: H2/L2-36 (antibody, V domains shown)
VH: QAQLQSSGGGVVQPGRSLRLSCAASGFTFSSYGMHWVRQAPGKGLEWVAVISYKGSNKYYADSVKGRFTISRDNSKNTLYLQMNSLRAEDTAVYYCGGSGYALHDDYYGLDVWGQGTLVTVSS
VL: QSALTQPASVSGSPGQSITISCTGTSSDVGGYNYVSWYQQHPGKAPKLMIYEVSNRLRGVSNRFSGSKFGNTASLTISGLQAEDEADYYCSSYTSSSTLYVFGSGTKVTVL
notes: AB3 family
Turning to B2, the binding result in assay [2] is on record as “binds”.

B3: H2/L2-22 (antibody, V domains shown)
VH: B2 VH with G8E, K54H
VL: B2 VL with R58S
notes: AB3 family
In the case of B3, the binding result in assay [2] is recorded as “binds”.

B4: H3-7 (antibody, V domains shown)
VH: B2 VH with A2V, G8E, F29L, K54T, A102E, L103F, D105E
VL: B2 VL
notes: AB3 family
On to B4, for which, in assay [2], the binding result is on record as “binds”.

B5: H3-9 (antibody, V domains shown)
VH: B2 VH with A2V, S6G, K54D, G55D, S56A, N57H, D106Q, Y108K, G109P, L110V
VL: B2 VL with D87Y
notes: AB3 family
Consider B5, for which the binding result in assay [2] was “binds”.

B6: H3-12 (antibody, V domains shown)
VH: B2 VH with G8E, K54D, G55E, A102E, L103V, H104D, D105Q
VL: B2 VL
notes: AB3 family
Regarding B6, the binding result in assay [2] is recorded as “binds”.

B7: H3-6 (antibody, V domains shown)
VH: B2 VH with S6R, K54D, G55D, S56A, N57H, D106Q, Y108K, G109P, L110V
VL: B2 VL with T98A
notes: AB3 family
Regarding B7, in assay [2], the binding result was “binds”.

B8: H3-11 (antibody, V domains shown)
VH: B2 VH with A2V, G8E, K54N, G55D, S56A, A102E, H104R
VL: B2 VL
notes: AB3 family
Turning to B8, in assay [2], the binding result is recorded as “binds”.

B9: H2/L2-68 (antibody, V domains shown)
VH: B2 VH with G8E, K54R, S56F, L110Q
VL: B2 VL with E52D, R58S
notes: AB3 family
As to B9, the binding result in assay [2] is listed as “binds”.

B10: AB3 (antibody, V domains shown)
VH: B2 VH with A2V, Q5V, S6E, F29V, K54T
VL: B2 VL with E52D, F69S, T98A
notes: AB3 family
With B10, the binding result in assay [2] was “binds”.

B11: H3-15 (antibody, V domains shown)
VH: B2 VH with A2V, S6G, F29V, K54D, G55D, S56A, N74S, L103Y, H104D, D105G
VL: B2 VL with R58G, T98A
notes: AB3 family
Turning to B11, the binding result in assay [2] was “binds”.

B12: H2/L2-18 (antibody, V domains shown)
VH: B2 VH with S6G, N57H
VL: B2 VL with E52D, L57P, R58W
notes: AB3 family
For B12, in assay [2], the binding result is listed as “binds”.

B13: H3-13 (antibody, V domains shown)
VH: B2 VH with A2V, S6E, K54D, G55D, S56A, N57H, D106Q, Y108K, G109P, L110V
VL: B2 VL
notes: AB3 family
For the molecule B13, the binding result in assay [2] is on record as “binds”.

B14: H2/L2-88 (antibody, V domains shown)
VH: B2 VH with A2V, G8E
VL: B2 VL with T98A
notes: AB3 family
Take B14: in assay [2], the binding result is reported as “binds”.

B15: H3-3 (antibody, V domains shown)
VH: B2 VH with A2V, F29V, K54S, D106Q, Y108K, G109P, L110V
VL: B2 VL
notes: AB3 family
B15: the binding result in assay [2] was “binds”.

B16: PI-61 (antibody, V domains shown)
VH: B2 VH with A2V, S6E, K54D
VL: B2 VL with E52D, L57P, R58S, F69S
notes: also called parental PI-61 antibody; P1-61
In the case of B16, in assay [3], the binding result is given as “binds”.

B17: H3-10 (antibody, V domains shown)
VH: B2 VH with A2V, K54N, G55D, S56L, A102E, L103F, H104Q, D105G
VL: B2 VL
notes: AB3 family
For the molecule B17, in assay [2], the binding result was “binds”.

B18: H3-8 (antibody, V domains shown)
VH: B2 VH with S6G, G8E, K54D, G55D, S56A, N57H, D106Q, Y108K, G109P, L110V
VL: B2 VL
notes: AB3 family
As to B18, the binding result in assay [2] is “binds”.

B19: H3-5 (antibody, V domains shown)
VH: B2 VH with A2V, S6G, K54T, S56A, A102N
VL: B2 VL with R58S
notes: AB3 family
Regarding B19, in assay [2], the binding result is on record as “binds”.

B20: H3-14 (antibody, V domains shown)
VH: B2 VH with A2V, S6G, K54D, G55D, S56A, N57H, D106Q, Y108K, G109P, L110V
VL: B2 VL with R58S, T98A
notes: AB3 family
For B20, the binding result in assay [2] is on record as “binds”.

B21: H2/L2-80 (antibody, V domains shown)
VH: B2 VH with A2V, K54T
VL: B2 VL with E52D, L57A, R58W, T98A
notes: AB3 family
With B21, the binding result in assay [2] was “binds”.

B22: H2/L2-20 (antibody, V domains shown)
VH: B2 VH with F29V, K54T
VL: B2 VL with E52D, T98A
notes: AB3 family
On to B22, for which the binding result in assay [2] is reported as “binds”.

B23: H3-1 (antibody, V domains shown)
VH: B2 VH with A2V, S6G, K54D, G55D, S56A, N57H, D106Q, Y108K, G109P, L110V
VL: B2 VL
notes: AB3 family
Take B23: the binding result in assay [2] is listed as “binds”.

B24: H2/L2-47 (antibody, V domains shown)
VH: B2 VH with A2V, G8E
VL: B2 VL with E52D, L57P, R58W
notes: AB3 family
As to B24, the binding result in assay [2] is on record as “binds”.

B25: H3-4 (antibody, V domains shown)
VH: B2 VH with A2V, S6G, K54D, G55D, S56A, N57H, D106Q, Y108K, G109P, L110V
VL: B2 VL with T98A
notes: AB3 family
B25: the binding result in assay [2] is on record as “binds”.

B26: H3-2 (antibody, V domains shown)
VH: QAQLQESEGGVVQPGGSLRLSCAASGFTFSSYGMHWVRQAPGKGLEWVAVISYNDLNKYYADSVKGRFTISRDNSKNTLYLQMNSLRAEDTAVYYCGGSGYALHDFQDPTDVWGQGTLVTVSS
VL: B2 VL
notes: AB3 family
Take B26: the binding result in assay [2] was “binds”.

B27: H2/L2-83 (antibody, V domains shown)
VH: B2 VH with S6G
VL: B2 VL
notes: AB3 family
B27: in assay [2], the binding result is “binds”.

B28: CD58_IgV (ligand)
chain: SQQIYGVVYGNVTFHVPSNVPLKEVLWKKQKDKVAELENSEFRAFSSFKNRVYLDTVSGSLTIYNLTSSDEDEYEMESPNITDTMKFFLYVLESGGGGSHHHHHHHH
notes: Recombinant, made in HEK293 cells; also called CD58 domain 1; IgV domain of CD58 (wild type)
On to B28, for which, in assay [1], the Kd (as a rule, the free concentration of one partner at which half of the binding sites on the other are occupied at equilibrium, for simple one-to-one binding) stood at 610 nM and the “n (binding stoichiometry)” value was determined as 0.96.

B29: IgV V45C_M105C (ligand)
chain: B28 chain with V16C, M76C
notes: Disulfide-stabilised variant
B29: in assay [1], binding was characterised by a dissociation constant (Kd) of 880 nM and the “n (binding stoichiometry)” value is 0.97.

B30: IgV V45C_M114C (ligand)
chain: B28 chain with V16C, M85C
notes: Disulfide-stabilised variant
In the case of B30, in assay [1], the Kd was found to be 380 nM and the “n (binding stoichiometry)” value came to 0.88.

B31: IgV V54C_G88C (ligand)
chain: B28 chain with V25C, G59C
notes: Disulfide-stabilised variant
Consider B31, for which, in assay [1], the Kd was 600 nM and the “n (binding stoichiometry)” value is 0.83.
